# Paper PMC9536298
# Columns and labels:
# [1] = target: zinc finger protein ZPR1, endogenous human (human (endogenous in HeLa and human fibroblasts)) (UniProt O75312); assay: co-IP
# [2] = target: survival motor neuron protein (SMN), endogenous human (human (endogenous in human fibroblasts)) (UniProt Q16637); assay: co-IP
# Sequence of survival motor neuron protein (SMN), endogenous human (human (endogenous in human fibroblasts)) (Q16637 whole entry): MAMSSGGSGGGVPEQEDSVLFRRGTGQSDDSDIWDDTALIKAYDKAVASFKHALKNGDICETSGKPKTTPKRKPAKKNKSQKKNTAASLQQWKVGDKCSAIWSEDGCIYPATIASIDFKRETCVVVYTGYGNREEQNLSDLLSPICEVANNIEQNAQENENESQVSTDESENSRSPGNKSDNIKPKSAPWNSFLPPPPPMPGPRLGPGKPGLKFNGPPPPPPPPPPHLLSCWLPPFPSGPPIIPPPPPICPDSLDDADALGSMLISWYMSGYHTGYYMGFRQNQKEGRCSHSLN
# Sequence of zinc finger protein ZPR1, endogenous human (human (endogenous in HeLa and human fibroblasts)) (O75312 whole entry): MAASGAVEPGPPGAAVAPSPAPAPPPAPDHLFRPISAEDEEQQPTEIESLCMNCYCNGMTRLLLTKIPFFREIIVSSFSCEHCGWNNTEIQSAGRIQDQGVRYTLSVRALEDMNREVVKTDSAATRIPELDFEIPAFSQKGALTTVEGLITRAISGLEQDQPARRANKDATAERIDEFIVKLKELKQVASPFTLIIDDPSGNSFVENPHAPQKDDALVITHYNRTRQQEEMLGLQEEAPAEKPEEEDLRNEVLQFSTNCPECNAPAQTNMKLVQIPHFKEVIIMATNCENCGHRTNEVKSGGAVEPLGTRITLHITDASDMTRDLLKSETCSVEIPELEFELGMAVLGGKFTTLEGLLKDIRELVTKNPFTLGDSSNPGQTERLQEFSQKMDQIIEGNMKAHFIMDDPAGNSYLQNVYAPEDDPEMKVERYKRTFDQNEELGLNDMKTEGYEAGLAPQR
substance,measurement,setting,value
"senataxin (SETX), endogenous human, Q7Z333 1-2677","co-IP level with ZPR1 in SMA cells, % of normal cells",[1],44.8%
same,"co-IP level with SMN in SMA cells, % of normal cells",[2],25.8%
